B1: Cas2 from Escherichia coli K12 (MG1655), untagged, purified (enzyme, E. coli K12 (MG1655))
chain: MSMLVVVTENVPPRLRGRLAIWLLEVRAGVYVGDVSAKIREMIWEQIAGLAEEGNVVMAWATNTETGFEFQTFGLNRRTPVDLDGLRLVSFLPV
B2: Cas1 from Escherichia coli K12 (MG1655), untagged, purified (enzyme, E. coli K12 (MG1655))
chain: MTWLPLNPIPLKDRVSMIFLQYGQIDVIDGAFVLIDKTGIRTHIPVGSVACIMLEPGTRVSHAAVRLAAQVGTLLVWVGEAGVRVYASGQPGGARSDKLLYQAKLALDEDLRLKVVRKMFELRFGEPAPARRSVEQLRGIEGSRVRATYALLAKQYGVTWNGRRYDPKDWEKGDTINQCISAATSCLYGVTEAAILAAGYAPAIGFVHTGKPLSFVYDIADIIKFDTVVPKAFEIARRNPGEPDREVRLACRDIFRSSKTLAKLIPLIEDVLAAGEIQPPAPPEDAQPVAIPLPVSLGDAGHRSS
B3: Cas1 R252E, purified (enzyme, E. coli K12 (MG1655))
chain: B2 chain with R252E

Positions count from the first letter of the chain named. Names may count otherwise. “And” between values parts separate entries of the source, which are not always exact repeats. Identical values can stand only once.

Data set [1] deals with B2. The experiment in a line: ITC. (In general: ITC needs no label: the signal is the heat of the interaction.)
The data set “crystal structure” deals with the molecule itself. The experiment in a line: crystal structure.
The target of data set [2] is B1. In words: ITC.
The target of data set [3] is B1. The experiment in a line: AUC.
The data set “SEC” deals with the molecule itself. In words: SEC. Background: SEC sorts molecules by how far they enter the pores of the column.

For orientation: Kd means the concentration at which binding is half-saturated. A lower Kd goes with a tighter complex. The stoichiometry N is the number of molecules, sites or subunits per partner or assembly. Turning to B1, the dissociation constant Kd in data set [1] was ~290 nM. In addition, the “stoichiometry N” value in the data set “crystal structure” stood at 2.
Regarding B2, the “KD of a single run” value in data set [2] was 308 nM and 212 nM and 351 nM. The “stoichiometry N” value in data set [2] was ~1.5 Cas1 to Cas2; in “crystal structure”, 2; in data set [3], 1 Cas1 dimer per Cas2 dimer.
Regarding B3, the “stoichiometry N” value in “SEC” was determined as 2.
